Data on ten molecules can be found in US20090123479A1 (published 2009).

Assay [1] has as its target T1, recombinant human IL-23 (human, UniProt Q9NPF7 20-189; P29460 23-328).
T1 construct: also called hIL-23
T1 sequence 1: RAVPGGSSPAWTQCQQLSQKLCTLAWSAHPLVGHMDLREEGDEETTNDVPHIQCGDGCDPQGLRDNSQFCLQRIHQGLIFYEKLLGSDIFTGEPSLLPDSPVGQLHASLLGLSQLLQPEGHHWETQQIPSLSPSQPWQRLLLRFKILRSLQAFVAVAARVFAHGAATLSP
T1 sequence 2: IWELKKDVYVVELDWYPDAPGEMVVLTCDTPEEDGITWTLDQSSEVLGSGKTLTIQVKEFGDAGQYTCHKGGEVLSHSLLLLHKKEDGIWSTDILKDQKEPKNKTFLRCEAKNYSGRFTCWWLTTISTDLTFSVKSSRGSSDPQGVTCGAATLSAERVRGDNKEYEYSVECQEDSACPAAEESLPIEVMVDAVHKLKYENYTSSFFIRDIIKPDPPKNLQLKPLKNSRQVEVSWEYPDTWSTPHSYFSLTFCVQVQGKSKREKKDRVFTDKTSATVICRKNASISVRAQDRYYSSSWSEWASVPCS
Briefly: IL-23/IL-23R inhibition ELISA (optimised protocol, OD450): plate coated with human IL23R Fc chimera, antibody pre-incubated with constant human IL-23, bound IL-23 detected with biotinylated anti-human IL-12; purified antibody. How it is done:
Optimised protocol: Plates were coated with human IL23R Fc chimera at […] (phosphate buffered saline). 50 μl/well of this mixture was incubated overnight at 4° C. The plates were then washed three times with Phosphate Buffered Saline with 0.05% Tween 20 (PBST). Plates were blocked with 4% skim milk powder (Fluka BioChemika #70166) PBST 100 μl/well for a minimum of 1 hour at room temperature. The plates were then washed three times with Phosphate Buffered Saline+0.05% Tween 20 (PBST). Various concentrations of antibody were incubated in a separate plate with a constant concentration of IL-23 for 1 hour at room temperature. 50 ul of each mixture were transferred to the assay plate and incubated at RT for 1 hr. They were then washed three times with Phosphate Buffered Saline+0.05% Tween 20 (PBST). Bound IL23 was detected by anti human 1L12 Biotin labelled Ab (R&D systems BAF219) diluted to 100 ng/ml in 4% skim milk powder (Fluka BioChemika #70166) PBST. 50 μl/well of the biotinylated antibody was added and incubated at RT for 1 hour. The plates were then washed three times with Phosphate Buffered Saline+0.05% Tween 20 (PBST). SA HRP (GE healthcare RPN4401) was diluted 1/4000 in 4% skim m ilk powder (Fluka BioChemika #70166) PBS, 50 μl/well was added to the plates. The plates were then washed three times with Phosphate Buffered Saline+0.05% Tween 20 (PBST). 50 ul/well of TMB was added to the plates and incubated at RT for 15 min. 25 μl/well of 3 MH₂SO₄ was added to the wells already containing TMB. The plate was read at OD450 nm using the SOftmaxPRO versamax plate reader.

For assay [2], the target named is T1, recombinant human IL-23. Nature of the assay: SPR (Biacore T100), purified antibody captured on anti-human IgG, IL-23 analyte, 1:1 model. How it is done: (§1) Biacore analysis was carried out using a capture surface on a CM5 chip. Anti-human IgG (BR-1008-39) was used as the capturing agent. Anti-human IgG was coupled to a CM5 biosensor chip by primary amine coupling. Humanized antibody was captured on this immobilised surface and defined concentrations of IL-23 were passed over this captured surface. An injection of buffer over the captured antibody surface was used for double-referencing. […] T100 Biacore machine was used to generate the data; all runs were carried out at 25° C. using HBS EP. Data was analysed using the software inherent to the machine and fitted to the 1:1 model of binding. Tables 7 and 8 detail the IL-23 binding analysis carried out on the 8C92H6.HC1LC1 chimera and selected humanized variants in two separate experiments. Data presented in Tables 7 and 8 are from purified antibody samples. The data shown for the humanized variants is representative of a number of runs. The chimeric mAb (8C9H6.HC1LC1) was only run once in each experiment, so data shown for this mAb is from that one run.

Assay [3] concerns the target T1, recombinant human IL-23. Nature of the assay: SPR (Biacore T100), tissue culture supernatant antibody captured on anti-human IgG, IL-23 analyte. The procedure:
as §1, with “Data presented in Tables 7 and 8 are from purified antibody samples.” left out

Where a chain is given by its changes, count along the chain named.

B1: A5M0 (antibody, human IgG1, kappa, V domains shown)
VH: QVQLVQSGAEVKKPGSSVKVSCKASGYTFTSYGITWVRQAPGQGLEWMGENYPRSGNTYYNEKFKGRVTITADKSTSTAYMELSSLRSEDTAVYYCARAEFISTVVAPYYYALDYWGQGTLVTVSS
VL: DIVMTQSPDSLAVSLGERATINCKASKKVTIFGSISALHWYQQKPGQPPKLIYNGAKLESGVPDRFSGSGSGTDFTLTISSLQAEDVAVYYCLQNKEVPYTFGGGTKVEIKR
notes: Full length chains
The term Kd denotes the equilibrium constant for the complex coming apart. By koff is commonly meant the rate constant with which the complex falls apart. The term kon denotes the rate constant with which the complex forms. Turning to B1, the “IC50 (read off the curve)” value with recombinant human IL-23 [1] is around 0.2 nM. In the assay with recombinant human IL-23 [2], the Kd worked out at 0.103 nM, the koff amounted to 0.000171 s⁻¹ and the kon came to 1.65e+06 M⁻¹ s⁻¹.

B2: A9M3 (antibody, V domains shown)
VH: B1 VH with N51D, A99V
VL: DIVMTQSPDSLAVSLGERATINCKASKKVTIFGSTSALHWYQQKPGQPPKLIYNGAKLESGVPDRFSGSGSGTDFTLTISSLQAEDVAVYYCLQNKEVPYTFGGGTKVEIK
Regarding B2, the “IC50 (read off the curve)” value in the assay with recombinant human IL-23 [1] is around 0.1 nM. In the assay with recombinant human IL-23 [2], the Kd turned out to be 0.065 nM, the koff turned out to be 0.000171 s⁻¹ and the kon came out at 2.64e+06 M⁻¹ s⁻¹.

B3: A12M3 (antibody, V domains shown)
VH: B1 VH with T30A, V93M, A99V
VL: B2 VL
Regarding B3, in the assay with recombinant human IL-23 [3], the Kd is 0.0794 nM, the koff was determined as 0.000202 s⁻¹ and the kon was 2.54e+06 M⁻¹ s⁻¹.

B4: A11M4 (antibody, V domains shown)
VH: B1 VH with T30A, V93M
VL: B2 VL with L58P
As for B4, in the assay with recombinant human IL-23 [3], the Kd amounted to 0.0444 nM, the koff is 9.18e-05 s⁻¹ and the kon was 2.07e+06 M⁻¹ s⁻¹.

B5: A8M3 (antibody, V domains shown)
VH: B1 VH with N51D
VL: B2 VL
Consider B5, for which the “IC50 (read off the curve)” value in the assay with recombinant human IL-23 [1] was around 0.2 nM. In the assay with recombinant human IL-23 [2], the Kd stood at 0.08 nM, the koff was 0.000135 s⁻¹ and the kon was determined as 1.67e+06 M⁻¹ s⁻¹.

B6: A11M3 (antibody, V domains shown)
VH: B1 VH with T30A, V93M
VL: B2 VL
In the case of B6, in the assay with recombinant human IL-23 [3], the Kd amounted to 0.0671 nM, the koff was 9.57e-05 s⁻¹ and the kon was determined as 1.43e+06 M⁻¹ s⁻¹.

B7: A12M4 (antibody, V domains shown)
VH: B1 VH with T30A, V93M, A99V
VL: B2 VL with L58P
As to B7, in the assay with recombinant human IL-23 [3], the Kd stood at 0.0553 nM, the koff was found to be 0.000163 s⁻¹ and the kon was 2.94e+06 M⁻¹ s⁻¹.

B8: A12.5M4 (antibody, V domains shown)
VH: B1 VH with T30A, A99V
VL: B2 VL with L58P
Turning to B8, in the assay with recombinant human IL-23 [3], the Kd came out at 0.0483 nM, the koff was 0.000151 s⁻¹ and the on-rate constant (kon) worked out at 3.12e+06 M⁻¹ s⁻¹.

B9: A7M3 (antibody, human IgG1, kappa, V domains shown)
VH: B1 VH with N51D, A99S
VL: B1 VL with I35T
notes: Full length chains
With B9, the “IC50 (read off the curve)” value with recombinant human IL-23 [1] was around 0.2 nM. Further, in the assay with recombinant human IL-23 [2], the Kd is 0.144 nM, the koff is 0.000145 s⁻¹ and the kon was found to be 1.01e+06 M⁻¹ s⁻¹.

B10: A6M0 (antibody, human IgG1, kappa, V domains shown)
VH: B1 VH with A99V
VL: B1 VL
notes: Full length chains
As to B10, the “IC50 (read off the curve)” value in the assay with recombinant human IL-23 [1] is around 0.2 nM. In the assay with recombinant human IL-23 [2], the Kd is 0.101 nM, the koff was found to be 0.000298 s⁻¹ and the kon amounted to 2.95e+06 M⁻¹ s⁻¹.
